Data taken from patent US20220064276A1 (SCHOLAR ROCK, published 2022).
Residue numbers refer to the chain shown, from its start. Where two headings read alike, the source gives them in different places.

How the values were obtained:
[1] = target: T1, human LTBP3-proTGFβ1 complex (human, UniProt Q9NS15 44-1303; P01137 30-390, limits assumed); test: Octet BLI, IgG captured
T1 construct: Exemplary entries; also called Hu LTBP3-proTGFβ1; huLTBP3 proTGFb1
Procedure: (§1) Binding affinities of the optimized antibodies were measured by Octet against human LTBP1-proTGFβ1, human LTBP3-proTGFβ1, mouse LTBP1-proTGFβ1, mouse LTBP3-proTGFβ1, and GARP-proTGFβ1 complexes, essentially as described in Example 6. […] The antigens were allowed to associate for 3 minutes followed by a 5-minute dissociation. Kinetics buffer (ForteBio®) was used throughout the experiment, and KD was determined using a 1:1 fitting model for each antibody antigen pair.

[2] = target: T2, human LTBP1-proTGFβ1 complex (human, UniProt Q14766 347-1721; P01137 30-390); test: Octet BLI, IgG captured
T2 construct: Large latent complex: one presenting molecule disulfide-linked to a proTGFβ1 dimer; also called Hu LTBP1-proTGFβ1; huLTBP1 proTGFβ1
Procedure: as §1

[3] = target: T3, mouse LTBP1-proTGFβ1 complex (mouse, UniProt Q8CG19 339-1712; P04202 30-390); test: Octet BLI, IgG captured
T3 construct: Exemplary entries; In the cell assays expressed from mouse LTBP1S and mouse proTGFb1 plasmids in LN229 cells; also called Mo LTBP1-proTGFβ1; MuLTBP1-ProTGFb1
Procedure: as §1

[4] = target: T4, mouse LTBP3-proTGFβ1 complex (mouse, UniProt Q61810 41-1245; P04202 30-390, limits assumed); test: Octet BLI, IgG captured
T4 construct: Exemplary entries; also called Mo LTBP3-proTGFβ1; Murine LTBP3 proTGFb1
Procedure: as §1

[5] = target: T5, LTBP-proTGFβ1: transfected human proTGFβ1 presented by endogenous LTBP1/3 of LN229 cells (human); test: cell-based or functional assay
[6] = target: T3, mouse LTBP1-proTGFβ1 complex; test: cell-based or functional assay
[7] = target: T6, human GARP-proTGFβ1 complex (human, UniProt Q14392 18-627; P01137 30-390, limits assumed); test: Octet (bio-layer interferometry), response at 200 nM antigen; 0.1 nm cutoff designates meaningful binding
T6 construct: Exemplary entries; also called Hu GARP-proTGFβ1; huGARP proTGFb1
Procedure: This experiment was performed at 200, 100, 50, and 25 nM human GARP proTGFb1 and human LTBP1 proTGFbl. […] Surface plasmon resonance (SPR)-based assays

[8] = target: T5, LTBP-proTGFβ1: transfected human …; test: cell-based or functional assay; remark: listed apart in the source
[9] = target: T3, mouse LTBP1-proTGFβ1 complex; test: cell-based or functional assay; remark: listed apart in the source
[10] = target: T5, LTBP-proTGFβ1: transfected human …; test: cell-based or functional assay; remark: listed apart in the source
[11] = target: T3, mouse LTBP1-proTGFβ1 complex; test: cell-based or functional assay; remark: listed apart in the source
[12] = target: T2, human LTBP1-proTGFβ1 complex; test: Octet BLI, IgG captured; remark: listed apart in the source
Procedure: (§2) LTBP complex-specific antibodies from the first round of affinity maturation/optimization (SR-AB14, SR-AB16, SR-AB17, SR-AB18, SR-AB19) were selected for a second round of affinity maturation/optimization (i.e., CDR-H3 mutagenesis as described herein) and particular progeny antibodies (SR-AB20, SR-AB21, SR-AB22, SR-AB23, SR-AB24, SR-AB25, SR-AB26, SR-AB27, SR-AB28, and SR-AB29) were assessed for their ability to bind various proTGFβ1 constructs. Binding affinities of the optimized antibodies were measured by Octet against human LTBP1-proTGFβ1, human LTBP3-proTGFbl, mouse LTBP1-proTGFβ1, mouse LTBP3-proTGFbl, and GARP-proTGFβ1 complexes, essentially as described in Example 6. […] The antigens were allowed to associate for 3 minutes followed by a 5-minute dissociation. Kinetics buffer (ForteBio®) was used throughout the experiment, and KD was determined using a 1:1 fitting model for each antibody antigen pair.

[13] = target: T3, mouse LTBP1-proTGFβ1 complex; test: Octet BLI, IgG captured; remark: listed apart in the source
Procedure: as §2

[14] = target: T4, mouse LTBP3-proTGFβ1 complex; test: Octet BLI, IgG captured; remark: listed apart in the source
Procedure: as §2

[15] = target: T4, mouse LTBP3-proTGFβ1 complex; test: SPR Biacore 8K, Fab over captured antigen; mean of 2
Procedure: (§3) A Biacore 8K system was employed to determine the monovalent binding affinity and the kinetic parameters for antigen binding of test antibodies. Association and dissociation kinetics of Fab fragments SR-AB42-HuFab, SR-AB63-HuFab and SR-AB43-HuFab to antigen complexes were measured, and resulting ka, kd and KD are provided below. Briefly, the binding kinetics were evaluated by surface plasmon resonance using Biacore 8K (GE Healthcare). Biotinylated capture antigens were immobilized to the chip (10 nM, ˜200 RU loading). A Biotin CAPture sensor chip was used to capture the biotinylated antigens. […] 0 nM was used as a reference. […] 0 nM was used as a reference. Multi-cycle kinetics was employed where each analyte concentration was injected in a separate cycle and the sensor chip surface was regenerated after each cycle. A11 the assays were carried out in freshly prepared 1× HBS-EP+ buffer (10 mM HEPES, 150 mM NaCl, 3 mM EDTA, 0.05% Tween20, pH 7.4). Data were fit globally to a 1:1 binding model to obtain the kinetic parameters. The sensorgram for 0 nM analyte concentration was used as reference.

[16] = target: T2, human LTBP1-proTGFβ1 complex; test: SPR Biacore 8K, Fab over captured antigen
Procedure: as §3

[17] = target: T7, mouse GARP-proTGFβ1 complex (mouse, UniProt G3XA59 18-628; P04202 30-390, limits assumed); test: SPR Biacore 8K, Fab over captured antigen, Rmax fixed
T7 construct: Exemplary entries; also called MuGARP-ProTGFb1; Mu GARP-ProTGFβ1
Procedure: (§4) These experiments were performed using the Biacore 8K using the method “multi-cycle kinetics/affinity using Biotin CAPture kit.”
(§5) Data collection rate was set to 10 Hz and the Biotin CAPture step was performed for 300 seconds with a flow rate of 2 μL/minute. The Biotin CAPture reagent was used after a 1:5 dilution in 1× Biacore running buffer. Biotinylated ligands (the various complexes of TGFβ1) were utilized at a concentration of 10 nM and were immobilized to the sensor chip for 180 seconds with a flow rate of 10 μL/minute. […] Analyte contact time was 120 seconds and the dissociation time was 900 seconds. The regeneration cycle utilized was 120 seconds with a flow rate of 10 μL/minute.
(§6) The evaluation method used was “multi-cycle affinity using capture” and a 1:1 binding model was used. […] Global fits were utilized for every KD determination.

[18] = target: T1, human LTBP3-proTGFβ1 complex; test: as above
Procedure: as §4, §5, §6

[19] = target: T8, human LRRC33-proTGFβ1 complex (human, UniProt Q86YC3 19-650; P01137 30-390, limits assumed); test: as above
T8 construct: Exemplary entries; also called huLRRC33 proTGFb1; HuLRRC33-ProTGFb1
Procedure: as §4, §5, §6

[20] = target: T2, human LTBP1-proTGFβ1 complex; test: as above
Procedure: as §4, §5, §6

[21] = target: T6, human GARP-proTGFβ1 complex; test: as above
Procedure: as §4, §5, §6

[22] = target: T3, mouse LTBP1-proTGFβ1 complex; test: as above
Procedure: as §4, §5, §6

[23] = target: T4, mouse LTBP3-proTGFβ1 complex; test: as above
Procedure: as §4, §5, §6

[24] = target: T9, mouse LRRC33-proTGFβ1 complex (mouse, UniProt Q8BMT4 20-651, limits assumed); test: as above
T9 construct: also called MuLRRC33-ProTGFb1; Mu LRRC33-ProTGFβ1
Procedure: as §4, §5, §6

T1 sequence (Q9NS15 44-1303 limits assumed, chain 1 of 2): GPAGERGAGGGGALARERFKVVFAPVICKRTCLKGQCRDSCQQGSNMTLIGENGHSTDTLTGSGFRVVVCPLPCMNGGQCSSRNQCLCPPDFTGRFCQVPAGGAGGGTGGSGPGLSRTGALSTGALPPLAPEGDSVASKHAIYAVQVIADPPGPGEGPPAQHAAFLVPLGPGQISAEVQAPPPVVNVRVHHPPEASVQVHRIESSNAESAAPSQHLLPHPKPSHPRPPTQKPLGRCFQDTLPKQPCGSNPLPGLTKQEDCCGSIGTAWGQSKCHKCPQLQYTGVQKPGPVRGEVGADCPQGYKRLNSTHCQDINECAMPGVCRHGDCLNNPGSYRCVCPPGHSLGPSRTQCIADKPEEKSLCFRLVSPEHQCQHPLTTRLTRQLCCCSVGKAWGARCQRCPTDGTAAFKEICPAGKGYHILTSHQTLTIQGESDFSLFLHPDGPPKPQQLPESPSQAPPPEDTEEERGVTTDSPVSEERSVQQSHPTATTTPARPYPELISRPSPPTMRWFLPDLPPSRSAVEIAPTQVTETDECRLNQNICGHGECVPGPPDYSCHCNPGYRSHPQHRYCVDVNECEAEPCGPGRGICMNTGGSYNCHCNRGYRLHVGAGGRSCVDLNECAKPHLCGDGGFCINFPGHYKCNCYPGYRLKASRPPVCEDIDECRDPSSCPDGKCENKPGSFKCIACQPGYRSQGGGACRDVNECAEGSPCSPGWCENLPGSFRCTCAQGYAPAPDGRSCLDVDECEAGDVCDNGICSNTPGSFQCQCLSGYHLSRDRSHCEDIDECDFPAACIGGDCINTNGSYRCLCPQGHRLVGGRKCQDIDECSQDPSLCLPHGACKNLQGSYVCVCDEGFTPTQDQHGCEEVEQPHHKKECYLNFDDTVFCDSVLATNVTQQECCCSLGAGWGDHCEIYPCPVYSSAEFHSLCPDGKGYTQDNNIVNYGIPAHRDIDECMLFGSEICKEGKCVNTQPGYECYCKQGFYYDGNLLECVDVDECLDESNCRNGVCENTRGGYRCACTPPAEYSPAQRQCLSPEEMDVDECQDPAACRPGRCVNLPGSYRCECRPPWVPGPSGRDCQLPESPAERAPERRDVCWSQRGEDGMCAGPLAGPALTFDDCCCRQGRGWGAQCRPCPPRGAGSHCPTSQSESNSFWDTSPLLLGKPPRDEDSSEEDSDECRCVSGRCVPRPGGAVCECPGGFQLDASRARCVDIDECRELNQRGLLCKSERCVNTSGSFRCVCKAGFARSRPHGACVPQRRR
T1 sequence (P01137 30-390 limits assumed, chain 2 of 2): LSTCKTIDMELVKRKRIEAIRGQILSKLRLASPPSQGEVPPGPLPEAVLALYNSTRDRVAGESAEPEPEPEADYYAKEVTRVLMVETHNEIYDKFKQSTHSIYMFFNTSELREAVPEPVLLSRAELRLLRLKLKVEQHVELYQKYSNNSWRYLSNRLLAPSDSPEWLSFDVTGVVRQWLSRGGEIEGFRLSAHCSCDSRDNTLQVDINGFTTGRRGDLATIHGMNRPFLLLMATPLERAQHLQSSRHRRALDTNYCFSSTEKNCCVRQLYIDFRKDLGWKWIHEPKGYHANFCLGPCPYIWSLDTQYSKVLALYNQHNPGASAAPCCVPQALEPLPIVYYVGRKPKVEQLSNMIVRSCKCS
T6 sequence (Q14392 18-627 limits assumed, chain 1 of 2): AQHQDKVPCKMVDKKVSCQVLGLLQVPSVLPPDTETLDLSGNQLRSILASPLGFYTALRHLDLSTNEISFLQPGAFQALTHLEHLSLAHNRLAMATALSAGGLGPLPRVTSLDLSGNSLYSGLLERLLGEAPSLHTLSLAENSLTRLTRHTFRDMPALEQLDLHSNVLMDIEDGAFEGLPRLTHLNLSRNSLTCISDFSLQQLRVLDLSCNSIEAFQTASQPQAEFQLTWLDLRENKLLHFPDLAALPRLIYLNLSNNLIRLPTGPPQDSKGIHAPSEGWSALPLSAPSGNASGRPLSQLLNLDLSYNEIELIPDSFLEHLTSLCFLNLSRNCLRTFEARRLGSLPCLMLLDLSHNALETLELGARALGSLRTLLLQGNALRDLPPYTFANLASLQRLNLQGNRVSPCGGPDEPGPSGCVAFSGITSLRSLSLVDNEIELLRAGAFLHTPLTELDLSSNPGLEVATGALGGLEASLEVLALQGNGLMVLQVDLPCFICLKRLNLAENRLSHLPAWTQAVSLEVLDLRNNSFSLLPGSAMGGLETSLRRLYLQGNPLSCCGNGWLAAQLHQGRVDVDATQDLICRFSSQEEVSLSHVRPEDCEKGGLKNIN
T6 sequence (P01137 30-390 limits assumed, chain 2 of 2): as the sequence (P01137 30-390 limits assumed, chain 2 of 2) above
T5 sequence (P01137 30-390): as the sequence (P01137 30-390 limits assumed, chain 2 of 2) above
T2 sequence (Q14766 347-1721 limits assumed, chain 1 of 2): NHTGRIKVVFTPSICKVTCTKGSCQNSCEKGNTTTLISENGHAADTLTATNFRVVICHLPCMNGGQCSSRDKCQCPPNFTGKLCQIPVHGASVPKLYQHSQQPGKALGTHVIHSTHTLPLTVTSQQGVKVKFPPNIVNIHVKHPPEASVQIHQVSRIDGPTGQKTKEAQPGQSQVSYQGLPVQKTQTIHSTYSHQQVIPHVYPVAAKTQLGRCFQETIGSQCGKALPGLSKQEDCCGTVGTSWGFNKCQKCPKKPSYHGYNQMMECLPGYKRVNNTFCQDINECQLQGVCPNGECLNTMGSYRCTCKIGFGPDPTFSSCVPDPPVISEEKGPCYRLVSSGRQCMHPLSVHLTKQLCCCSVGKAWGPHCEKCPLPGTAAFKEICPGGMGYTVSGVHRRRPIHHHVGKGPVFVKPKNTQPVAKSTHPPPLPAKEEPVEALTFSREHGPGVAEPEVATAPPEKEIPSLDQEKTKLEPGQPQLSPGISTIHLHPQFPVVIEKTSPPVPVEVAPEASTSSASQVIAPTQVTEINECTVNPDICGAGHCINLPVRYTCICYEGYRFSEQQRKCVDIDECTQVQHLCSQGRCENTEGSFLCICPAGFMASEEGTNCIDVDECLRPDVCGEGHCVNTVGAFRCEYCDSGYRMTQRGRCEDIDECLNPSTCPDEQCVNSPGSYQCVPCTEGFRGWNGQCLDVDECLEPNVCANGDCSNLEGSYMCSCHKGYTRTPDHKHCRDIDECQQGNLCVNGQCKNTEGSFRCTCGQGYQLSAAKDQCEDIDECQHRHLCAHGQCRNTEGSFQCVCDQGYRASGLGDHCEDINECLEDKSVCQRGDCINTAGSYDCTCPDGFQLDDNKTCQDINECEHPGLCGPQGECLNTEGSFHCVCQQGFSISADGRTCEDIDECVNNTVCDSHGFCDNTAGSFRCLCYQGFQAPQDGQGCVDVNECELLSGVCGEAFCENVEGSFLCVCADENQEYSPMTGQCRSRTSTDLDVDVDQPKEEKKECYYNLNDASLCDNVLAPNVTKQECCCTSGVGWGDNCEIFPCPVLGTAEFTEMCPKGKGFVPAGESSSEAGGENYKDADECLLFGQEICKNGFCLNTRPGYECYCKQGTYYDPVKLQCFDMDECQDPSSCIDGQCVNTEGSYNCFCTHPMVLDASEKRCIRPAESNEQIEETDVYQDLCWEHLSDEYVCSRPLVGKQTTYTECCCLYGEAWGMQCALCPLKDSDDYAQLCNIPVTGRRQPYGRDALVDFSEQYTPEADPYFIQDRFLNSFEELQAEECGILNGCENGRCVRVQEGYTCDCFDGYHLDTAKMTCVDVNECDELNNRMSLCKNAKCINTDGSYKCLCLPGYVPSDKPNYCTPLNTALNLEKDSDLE
T2 sequence (P01137 30-390 limits assumed, chain 2 of 2): as the sequence (P01137 30-390 limits assumed, chain 2 of 2) above
T8 sequence (Q86YC3 19-650 limits assumed, chain 1 of 2): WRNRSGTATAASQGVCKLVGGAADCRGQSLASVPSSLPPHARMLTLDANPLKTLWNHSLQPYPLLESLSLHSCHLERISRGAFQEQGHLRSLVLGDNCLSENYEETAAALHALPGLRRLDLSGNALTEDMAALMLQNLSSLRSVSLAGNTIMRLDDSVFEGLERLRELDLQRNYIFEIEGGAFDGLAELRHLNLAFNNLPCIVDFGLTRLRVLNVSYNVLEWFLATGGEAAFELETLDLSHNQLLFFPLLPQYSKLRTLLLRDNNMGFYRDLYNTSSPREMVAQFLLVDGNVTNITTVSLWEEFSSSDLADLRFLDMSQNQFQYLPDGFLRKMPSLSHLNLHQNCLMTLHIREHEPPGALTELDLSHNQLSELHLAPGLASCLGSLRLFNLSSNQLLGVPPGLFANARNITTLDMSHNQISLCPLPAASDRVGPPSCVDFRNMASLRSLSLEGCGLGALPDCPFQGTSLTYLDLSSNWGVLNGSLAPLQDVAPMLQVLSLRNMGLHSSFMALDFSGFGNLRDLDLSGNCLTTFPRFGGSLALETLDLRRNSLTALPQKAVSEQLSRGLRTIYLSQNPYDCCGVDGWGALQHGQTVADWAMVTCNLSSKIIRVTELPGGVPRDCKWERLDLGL
T8 sequence (P01137 30-390 limits assumed, chain 2 of 2): as the sequence (P01137 30-390 limits assumed, chain 2 of 2) above

B1: SR-AB63 (antibody, IgG1, V domains shown)
VH: QLQLQESGPGLVKPSETLSLTCTVSGGSIRSSSYYWGWIRQPPGKGLEWIGSISYSATTYYNPSLKSRVTISVDTSKNQFSLKLSSVTAADTAVYYCAGDPSYDSIAGMQVWGQGTTVTVSS
VL: DIQLTQSPSSLSASVGDRVTITCRASQSISSYLNWYQQKPGKAPKLLIYAASNLQSGVPSRFSGSGSGTDFTLTISSLQPEDFATYYCQQSFDWPLTFGGGTKVEIK
notes: Cycle 3, lineage SR-AB26
[1]
  Kd: 0.494 nM
  koff: 7.84e-05 s⁻¹
  kon: 159000 M⁻¹ s⁻¹
[2]
  Kd: 0.611 nM
  koff: 7.24e-05 s⁻¹
  kon: 118000 M⁻¹ s⁻¹
[3]
  Kd: 1.09 nM
[4]
  Kd: 2 nM
[5]
  IC50, endogenous hLTBP assay (CAGA12 luciferase): 1.78 nM
[6]
  IC50, mLTBP1 assay (CAGA12 luciferase): 0.207 nM

B2: SR-AB62 (antibody, IgG1, V domains shown)
VH: B1 VH with V12A, G99S, I106A, Q110D
VL: B1 VL with L4M, Q27K, S28V, A50Y, N53S, F92N, L96F
notes: Cycle 3, lineage SR-AB24
[1]
  Kd: 0.368 nM
  koff: 7.47e-05 s⁻¹
  kon: 203000 M⁻¹ s⁻¹
[2]
  Kd: 0.486 nM
  koff: 6.82e-05 s⁻¹
  kon: 140000 M⁻¹ s⁻¹
[3]
  Kd: 0.609 nM
[4]
  Kd: 3.37 nM
[7]
  binding result: no binding (tested: 200 nM)
[8]
  IC50, endogenous hLTBP assay (CAGA12 luciferase): 8.68 nM
[9]
  IC50, mLTBP1 assay (CAGA12 luciferase): 0.386 nM

B3: SR-AB64 (antibody, IgG1, V domains shown)
VH: B1 VH
VL: B1 VL with L4M, S31Y, A50S, N53S, L54R, S91G, W94F
notes: Cycle 3, lineage SR-AB26
[1]
  Kd: 0.471 nM
  koff: 9.18e-05 s⁻¹
  kon: 195000 M⁻¹ s⁻¹
[2]
  Kd: 0.467 nM
[3]
  Kd: 1.03 nM
[4]
  Kd: 2.85 nM
[5]
  IC50, endogenous hLTBP assay (CAGA12 luciferase): 3.12 nM
[6]
  IC50, mLTBP1 assay (CAGA12 luciferase): 0.268 nM
[7]
  binding result: no binding (tested: 200 nM)

B4: SR-AB22 (antibody, IgG1, V domains shown)
VH: QVQLVESGGGVVQPGRSLRLSCAASGFTFRSYVMHWVRQAPGKGLEWVAVISHEGSLKYYADSVKGRFTISRDNSKNTLYLQMNSLRAEDTAVYYCAVPRIAARRGGFGYWGQGTLVTVSS
VL: NFMLTQPHSVSESPGKTVTISCTRSSGNIDNNYVQWYQQRPGSSPTTVIYEDNQRPSGVPDRFSGSIDSSSNSASLTISGLKTEDEADYYCQSYDSDNQGVVFGGGTKLTVL
notes: Cycle 2, lineage SR-AB14
[10]
  IC50, endogenous hLTBP assay (CAGA12 luciferase): 4.62 nM
[11]
  IC50, mLTBP1 assay (CAGA12 luciferase): 1.39 nM
[12]
  Kd: 1.88 nM
[13]
  Kd: 2.43 nM
[14]
  Kd: 1.56 nM

B5: SR-AB43-HuFab (Fab, V domains shown)
VH: B4 VH with V98R
VL: B4 VL with N31Y, Q54V, G100R
notes: Human Fab; also called SR-AB43 Fab
[15]
  Kd: 4.43 nM
[16]
  Kd: 0.276 nM
  koff: 0.000284 s⁻¹
  kon: 1.03e+06 M⁻¹ s⁻¹

B6: SR-AB49-HuFab (Fab, V domains shown)
VH: B4 VH with L57G, V98R, Y110S
VL: B4 VL with N31Y, Q54V, S93G, S96W, N98T
notes: Human Fab; also called SR-AB49 Fab
[16]
  Kd: 0.17 nM
  koff: 0.000138 s⁻¹
  kon: 809000 M⁻¹ s⁻¹
[17]
  Kd: 2.82 nM
[18]
  Kd: 0.58 nM
[19]
  Kd: 7.7 nM
[20]
  Kd: 0.319 nM
[21]
  Kd: 6.55 nM
[22]
  Kd: 0.379 nM
[23]
  Kd: 0.65 nM
[24]
  Kd: 6.95 nM

B7: SR-AB47-HuFab (Fab, V domains shown)
VH: B4 VH with L57G, V98R, Y110S
VL: B4 VL with N31Y, Q54V, S96Y, G100A
notes: Human Fab; also called SR-AB47 Fab
[16]
  Kd: 0.074 nM
  koff: 0.000136 s⁻¹
  kon: 1.84e+06 M⁻¹ s⁻¹
[17]
  Kd: 1.95 nM
[18]
  Kd: 0.33 nM
[19]
  Kd: 6.66 nM
[20]
  Kd: 0.217 nM
[21]
  Kd: 6.5 nM
[22]
  Kd: 0.198 nM
[23]
  Kd: 0.4 nM
[24]
  Kd: 9.16 nM
